Results on 15 molecules are retold here after patent publication US20050112126A1 (Genentech, published 2005).

B1: Y0238-1 (Fab, V domains shown)
VH: EVQLVESGGGLVQPGGSLRLSCAASGYTFTNYGINWVRQAPGKGLEWVGWINTYTGEPTYAADFKRRFTFSLDTSKSTAYLQMNSLRAEDTAVYYCAKYPYYRGTSHWYFDVWGQGTL
VL: DIQLTQSPSSLSASVGDRVTITCRANEQLSNYLNWYQQKPGKAPKVLIYFTSSLHSGVPSRFSGSGSGTDFTLTISSLQPEDFATYYCQQYSTVPWTFGQGTKVEIKR
notes: From library YC-81 on the pY0192 template; Soluble Fab
B2: hu2.1 (Fab, name in Kabat numbering, V domains shown)
VH: EVQLVESGGGLVQPGGSLRLSCAASGYTFTNYGMNWIRQAPGKGLEWVGWINTYTGEPTYAADFKRRFTISRDNSKNTVYLQMNSLRAEDTAVYYCAKYPHYYGSSHWYFDVWGQGTLVTVSS
VL: DIQMTQSPSSLSASVGDRVTITCSASQDISNYLNWYQQKPGKAPKLLIYFTSSLHSGVPSRFSGSGSGTDYTLTISSLQPEDFATYYCQQYSTVPWTFGQGTKVEIK
notes: soluble Fab with human constant domains
B3: hu2.7 (Fab, name in Kabat numbering, V domains shown)
VH: EVQLVESGGGLVQPGGSLRLSCAASGYTFTNYGMNWIRQAPGKGLEWVGWINTYTGEPTYAADFKRRFTISRDNSKNTVYLQMNSLRAEDTAVYYCAKYPHYYGSSHWYFDVWGQGTLVTVSS
VL: DIQLTQSPSSLSASVGDRVTITCSASQDISNYLNWYQQKPGKAPKLLIYFTSSLHSGVPSRFSGSGSGTDFTLTISSLQPEDFATYYCQQYSTVPWTFGQGTKVEIK
notes: as for B2
B4: hu2.10V (Fab, V domains shown)
VH: EVQLVESGGGLVQPGGSLRLSCAASGYTFTNYGMNWIRQAPGKGLEWVGWINTYTGEPTYAADFKRRFTISLDTSASTVYLQMNSLRAEDTAVYYCAKYPHYYGSSHWYFDVWGQGTLVTVSS
VL: DIQMTQSPSSLSASVGDRVTITCSASQDISNYLNWYQQKPGKAPKVLIYFTSSLHSGVPSRFSGSGSGTDYTLTISSLQPEDFATYYCQQYSTVPWTFGQGTKVEIK
notes: Soluble Fab with human constant domains; also called hu2.10 with mutation VL Leu->Val
B5: hu2.10 (Fab, V domains shown)
VH: EVQLVESGGGLVQPGGSLRLSCAASGYTFTNYGMNWIRQAPGKGLEWVGWINTYTGEPTYAADFKRRFTISLDTSASTVYLQMNSLRAEDTAVYYCAKYPHYYGSSHWYFDVWGQGTLVTVSS
VL: DIQMTQSPSSLSASVGDRVTITCSASQDISNYLNWYQQKPGKAPKLLIYFTSSLHSGVPSRFSGSGSGTDYTLTISSLQPEDFATYYCQQYSTVPWTFGQGTKVEIK
notes: Soluble Fab with human constant domains; also called consensus clone hu2.10
B6: hu2.6 (Fab, name in Kabat numbering, V domains shown)
VH: EVQLVESGGGLVQPGGSLRLSCAASGYTFTNYGMNWIRQAPGKGLEWVGWINTYTGEPTYAADFKRRTTISLDTSASTVYLQMNSLRAEDTAVYYCAKYPHYYGSSHWYFDVWGQGTLVTVSS
VL: DIQLTQSPSSLSASVGDRVTITCSASQDISNYLNWYQQKPGKAPKLLIYFTSSLHSGVPSRFSGSGSGTDFTLTISSLQPEDFATYYCQQYSTVPWTFGQGTKVEIK
notes: as for B2
B7: hu2.2 (Fab, name in Kabat numbering, V domains shown)
VH: EVQLVESGGGLVQPGGSLRLSCAASGYTFTNYGMNWIRQAPGKGLEWVGWINTYTGEPTYAADFKRRFTISRDNSKNTVYLQMNSLRAEDTAVYYCAKYPHYYGSSHWYFDVWGQGTLVTVSS
VL: DIQLTQSPSSLSASVGDRVTITCSASQDISNYLNWYQQKPGKAPKLLIYFTSSLHSGVPSRFSGSGSGTDYTLTISSLQPEDFATYYCQQYSTVPWTFGQGTKVEIK
notes: as for B2
B8: pY0192 VL S56A (Fab, V domains shown)
VH: EVQLVESGGGLVQPGGSLRLSCAASGYTFTNYGINWVRQAPGKGLEWVGWINTYTGEPTYAADFKRRFTFSLDTSKSTAYLQMNSLRAEDTAVYYCAKYPHYYGSSHWYFDVWGQGTL
VL: DIQLTQSPSSLSASVGDRVTITCRANEQLSNYLNWYQQKPGKAPKVLIYFTSSLHAGVPSRFSGSGSGTDFTLTISSLQPEDFATYYCQQYSTVPWTFGQGTKVEIKR
notes: Ala-scan variant of pY0192; Fab on phage
B9: pY0192 VL Y91A (Fab, V domains shown)
VH: EVQLVESGGGLVQPGGSLRLSCAASGYTFTNYGINWVRQAPGKGLEWVGWINTYTGEPTYAADFKRRFTFSLDTSKSTAYLQMNSLRAEDTAVYYCAKYPHYYGSSHWYFDVWGQGTL
VL: DIQLTQSPSSLSASVGDRVTITCRANEQLSNYLNWYQQKPGKAPKVLIYFTSSLHSGVPSRFSGSGSGTDFTLTISSLQPEDFATYYCQQASTVPWTFGQGTKVEIKR
notes: as for B8
B10: pY0192 VL T51A (Fab, V domains shown)
VH: EVQLVESGGGLVQPGGSLRLSCAASGYTFTNYGINWVRQAPGKGLEWVGWINTYTGEPTYAADFKRRFTFSLDTSKSTAYLQMNSLRAEDTAVYYCAKYPHYYGSSHWYFDVWGQGTL
VL: DIQLTQSPSSLSASVGDRVTITCRANEQLSNYLNWYQQKPGKAPKVLIYFASSLHSGVPSRFSGSGSGTDFTLTISSLQPEDFATYYCQQYSTVPWTFGQGTKVEIKR
notes: as for B8
B11: pY0192 VL V94A (Fab, V domains shown)
VH: EVQLVESGGGLVQPGGSLRLSCAASGYTFTNYGINWVRQAPGKGLEWVGWINTYTGEPTYAADFKRRFTFSLDTSKSTAYLQMNSLRAEDTAVYYCAKYPHYYGSSHWYFDVWGQGTL
VL: DIQLTQSPSSLSASVGDRVTITCRANEQLSNYLNWYQQKPGKAPKVLIYFTSSLHSGVPSRFSGSGSGTDFTLTISSLQPEDFATYYCQQYSTAPWTFGQGTKVEIKR
notes: as for B8
B12: pY0192 VL S92A (Fab, V domains shown)
VH: EVQLVESGGGLVQPGGSLRLSCAASGYTFTNYGINWVRQAPGKGLEWVGWINTYTGEPTYAADFKRRFTFSLDTSKSTAYLQMNSLRAEDTAVYYCAKYPHYYGSSHWYFDVWGQGTL
VL: DIQLTQSPSSLSASVGDRVTITCRANEQLSNYLNWYQQKPGKAPKVLIYFTSSLHSGVPSRFSGSGSGTDFTLTISSLQPEDFATYYCQQYATVPWTFGQGTKVEIKR
notes: as for B8
B13: pY0192 VL T97A (Fab, V domains shown)
VH: EVQLVESGGGLVQPGGSLRLSCAASGYTFTNYGINWVRQAPGKGLEWVGWINTYTGEPTYAADFKRRFTFSLDTSKSTAYLQMNSLRAEDTAVYYCAKYPHYYGSSHWYFDVWGQGTL
VL: DIQLTQSPSSLSASVGDRVTITCRANEQLSNYLNWYQQKPGKAPKVLIYFTSSLHSGVPSRFSGSGSGTDFTLTISSLQPEDFATYYCQQYSTVPWAFGQGTKVEIKR
notes: as for B8
B14: pY0192 VL T93A (Fab, V domains shown)
VH: EVQLVESGGGLVQPGGSLRLSCAASGYTFTNYGINWVRQAPGKGLEWVGWINTYTGEPTYAADFKRRFTFSLDTSKSTAYLQMNSLRAEDTAVYYCAKYPHYYGSSHWYFDVWGQGTL
VL: DIQLTQSPSSLSASVGDRVTITCRANEQLSNYLNWYQQKPGKAPKVLIYFTSSLHSGVPSRFSGSGSGTDFTLTISSLQPEDFATYYCQQYSAVPWTFGQGTKVEIKR
notes: as for B8
B15: pY0192 VL Y32A (Fab, V domains shown)
VH: EVQLVESGGGLVQPGGSLRLSCAASGYTFTNYGINWVRQAPGKGLEWVGWINTYTGEPTYAADFKRRFTFSLDTSKSTAYLQMNSLRAEDTAVYYCAKYPHYYGSSHWYFDVWGQGTL
VL: DIQLTQSPSSLSASVGDRVTITCRANEQLSNALNWYQQKPGKAPKVLIYFTSSLHSGVPSRFSGSGSGTDFTLTISSLQPEDFATYYCQQYSTVPWTFGQGTKVEIKR
notes: Ala-scan variant of pY0192; Fab on phage; also called Y32A (VL)

One test deals with T1, VEGF (human, UniProt P15692-4 27-191, limits assumed).
T1 construct: Biotinylated in the KDR-IgG ELISA, amine-coupled to the chip in BIAcore; also called biotinylated VEGF; vascular endothelial growth factor
T1 sequence (P15692 other isoform, or with tags, fused parts or gaps limits assumed): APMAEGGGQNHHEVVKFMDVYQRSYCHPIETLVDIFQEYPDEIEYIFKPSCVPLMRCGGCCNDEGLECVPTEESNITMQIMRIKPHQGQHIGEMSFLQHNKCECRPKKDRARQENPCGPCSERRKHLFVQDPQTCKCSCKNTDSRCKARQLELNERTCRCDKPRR
The experiment in a line: BIAcore-2000 SPR, relative to Y0192. On the procedure:
(§1) BIAcore Analysis: The VEGF-binding affinities of Fab fragments were calculated from association and dissociation rate constants measured using a BIAcore-2000™ surface plasmon resonance system (BIAcore, Inc., Piscataway, N.J.). A biosensor chip was activated for covalent coupling of VEGF using N-ethyl-N′-(3-dimethylaminopropyl)-carbodiimide hydrochloride (EDC) and N-hydroxysuccinimide (NHS) according to the supplier's (BIAcore, Inc., Piscataway, N.J.) instructions. VEGF was buffered exchanged into 20 mM sodium acetate, pH 4.8 and diluted to approximately 50 μg/mL. An aliquot (35 μL) was injected at a flow rate of 2 μL/min to achieve approximately 700-1400 response units (RU) of coupled protein. Finally, 1 M ethanolamine was injected as a blocking agent.
(§2) For kinetics measurements, two-fold serial dilutions of Fab were injected in PBS/TWEEN™ buffer (0.05% TWEEN 20™ in phosphate buffered saline) at 25° C. at a flow rate of 10 μL/min. […] Equilibrium dissociation constants, Kd's from surface plasmon resonance (SPR) measurements were calculated as koff/kon.
(In general: SPR reads the build-up and loss of mass on a sensor chip optically.)
B1: the “Kd (wt)/Kd (mut)” value worked out at 7.3 ratio.

The target of a further test is T2, VEGF121 (human, UniProt P15692 27-147).
T2 construct: mature; Immobilized on the biosensor chip via primary amino groups; also called Purified VEGF121
T2 sequence (looked up): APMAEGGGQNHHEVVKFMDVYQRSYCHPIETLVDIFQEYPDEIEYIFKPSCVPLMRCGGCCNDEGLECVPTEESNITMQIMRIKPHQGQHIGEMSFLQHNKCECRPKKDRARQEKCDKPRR
Kind of test: BIAcore SPR, Fab over immobilized VEGF121. On the procedure: VEGF₁₂₁ was covalently immobilized on the biosensorchip via primary amino groups. Binding of humanized A4.6.1 Fab variants was measured by flowing solutions of Fab in PBS/0.05% TWEEN 20™ over the chip at a flow rate of 20 μL/min. Following each binding measurement, residual Fab was stripped from the immobilized ligand by washing with 5 μL of 50 mM aqueous HCl at 3 μL/min. Binding profiles were analyzed by nonlinear regression using a simple monovalent binding model (BIAevaluation software v2.0; Pharmacia).
Broadly, the Kd is the concentration at which binding is half-saturated. Low readings indicate tighter binding, high ones weaker binding. One may read the koff as the rate constant with which the complex falls apart. Usually kon stands for the second-order rate constant of association. Read a low kon as slower complex formation. As to B2, the “KD(A4.6.1)/KD(mut) as headed (values read as KD(mut)/KD(A4.6.1))” value (shortened to “KD(A4.6.1)/KD(mut) as headed”) was found to be 170 ratio, binding was put at a Kd of 260 nM, the off-rate constant (koff) was 0.0018 s⁻¹ and the kon amounted to 7000 M⁻¹ s⁻¹.

With B3, the “KD(A4.6.1)/KD(mut) as headed” value was determined as 230 ratio, the Kd came out at 360 nM, the koff came to 0.0024 s⁻¹ and the kon amounted to 6700 M⁻¹ s⁻¹.

For the molecule B4, the “KD(A4.6.1)/KD(mut) as headed” value amounted to 5.8 ratio, the Kd worked out at 9.3 nM, the “fold improvement in KD vs hu2.10” value was 6 fold and the koff was found to be 0.00018 s⁻¹. Also, the association rate constant (kon) is 20000 M⁻¹ s⁻¹.

Regarding B5, the “KD(A4.6.1)/KD(mut) as headed” value was found to be 35 ratio, the Kd was determined as 55 nM, the “fold tighter KD than hu2.0” value was at least 125 fold and the koff stood at 0.00035 s⁻¹. The kon is 6300 M⁻¹ s⁻¹.

For B6, the “KD(A4.6.1)/KD(mut) as headed” value stood at 40 ratio, binding was put at a Kd of 67 nM, the off-rate (koff) came out at 0.00045 s⁻¹ and the on-rate (kon) was 6700 M⁻¹ s⁻¹.

As for B7, the “KD(A4.6.1)/KD(mut) as headed” value was found to be 210 ratio, the dissociation constant (Kd) was 340 nM, the koff was found to be 0.0016 s⁻¹ and the on-rate constant (kon) came to 4700 M⁻¹ s⁻¹.

The target in a further test is T1, VEGF. The experiment in a line: competitive phage-ELISA, relative to pY0192. A general note: ELISA stands for enzyme-linked immunosorbent assay.
As for B8, the “IC50 (mut)/IC50 (wt)” value is 1 ratio.

Take B9: the “IC50 (mut)/IC50 (wt)” value amounted to 14 ratio.

Turning to B10, the “IC50 (mut)/IC50 (wt)” value worked out at 1 ratio.

As to B11, the “IC50 (mut)/IC50 (wt)” value was 2 ratio.

Turning to B12, the “IC50 (mut)/IC50 (wt)” value amounted to 1 ratio.

B13: the “IC50 (mut)/IC50 (wt)” value was determined as 1 ratio.

B14: the “IC50 (mut)/IC50 (wt)” value was 1 ratio.

With B15, the “IC50 (mut)/IC50 (wt)” value stood at 2 ratio.

A further test deals with T1, VEGF. The experiment in a line: BIAcore-2000 SPR, Fab over immobilized VEGF, 25 C. Here is the method: as §1, §2
In turn, B1 gave a Kd of 0.4 nM, a koff of 9e-06 s⁻¹ and a kon of 26000 M⁻¹ s⁻¹.
